Columns and labels:
[1] = molecular target: T1, recombinant mouse LRP5-His chimera (mouse, UniProt Q91VN0 31-1383); assay: single-point ELISA, coated antigen, purified Fab or IgG1, anti-kappa-HRP
T1 construct: extracellular domain; also called ECD of mouse LRP5; not shown: His tag
T1 sequence (looked up): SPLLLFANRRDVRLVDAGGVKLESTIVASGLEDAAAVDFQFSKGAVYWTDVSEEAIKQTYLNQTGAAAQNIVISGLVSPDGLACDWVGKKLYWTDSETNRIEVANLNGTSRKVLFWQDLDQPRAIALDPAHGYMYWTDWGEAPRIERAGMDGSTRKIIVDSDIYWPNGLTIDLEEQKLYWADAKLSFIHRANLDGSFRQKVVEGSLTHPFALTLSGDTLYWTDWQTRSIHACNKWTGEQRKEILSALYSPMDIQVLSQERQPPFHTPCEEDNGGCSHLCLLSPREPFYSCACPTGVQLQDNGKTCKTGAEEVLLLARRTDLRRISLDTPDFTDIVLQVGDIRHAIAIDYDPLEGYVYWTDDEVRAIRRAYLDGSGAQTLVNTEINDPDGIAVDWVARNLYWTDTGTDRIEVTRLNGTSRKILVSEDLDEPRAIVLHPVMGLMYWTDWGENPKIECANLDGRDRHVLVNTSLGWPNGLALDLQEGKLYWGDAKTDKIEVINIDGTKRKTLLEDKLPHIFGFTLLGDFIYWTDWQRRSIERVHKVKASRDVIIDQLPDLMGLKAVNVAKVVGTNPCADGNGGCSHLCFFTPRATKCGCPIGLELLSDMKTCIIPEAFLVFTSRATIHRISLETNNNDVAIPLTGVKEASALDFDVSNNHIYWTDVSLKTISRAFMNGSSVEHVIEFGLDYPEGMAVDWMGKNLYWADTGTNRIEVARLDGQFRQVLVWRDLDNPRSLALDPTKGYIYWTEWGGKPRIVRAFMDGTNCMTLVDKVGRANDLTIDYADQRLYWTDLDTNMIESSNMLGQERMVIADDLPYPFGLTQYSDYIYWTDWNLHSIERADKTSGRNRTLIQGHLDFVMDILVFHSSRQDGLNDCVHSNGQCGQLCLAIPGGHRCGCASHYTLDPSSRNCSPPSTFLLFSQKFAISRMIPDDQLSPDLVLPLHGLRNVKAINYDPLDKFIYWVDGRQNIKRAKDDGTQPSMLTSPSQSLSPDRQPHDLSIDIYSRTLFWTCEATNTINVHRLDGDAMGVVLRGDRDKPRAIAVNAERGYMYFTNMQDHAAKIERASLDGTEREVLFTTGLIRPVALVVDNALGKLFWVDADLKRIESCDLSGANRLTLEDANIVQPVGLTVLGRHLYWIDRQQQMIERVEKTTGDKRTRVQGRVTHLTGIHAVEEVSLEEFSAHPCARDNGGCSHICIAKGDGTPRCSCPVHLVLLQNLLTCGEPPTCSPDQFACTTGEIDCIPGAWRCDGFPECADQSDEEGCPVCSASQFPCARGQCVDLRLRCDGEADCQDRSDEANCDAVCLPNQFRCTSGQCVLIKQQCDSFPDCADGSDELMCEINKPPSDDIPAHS
Description: (§1) FIGS. 1A and 1B show sixteen (16) anti-LRP antibodies. (A) The amino acid sequences of the complementarity determining regions (CDR) of the heavy (H) and the light (L) chains are presented. The antibodies were grouped into unique epitopes as determined by competitive ELISAs. (B) Single-point ELISAs were performed on 96-well Maxisorb immune plates coated with ECD's of mouse LRP5, mouse LRP6 and human LRP6 chimeras. The plates were incubated with the purified Fab or IgG1 at the concentrations indicated followed by incubation with horseradish peroxidase (HRP)-conjugated anti-kappa antibody. The wells were washed eight times followed by incubation with 3,3′,5,5′-tetramethylbenzidine/H₂O₂ peroxidase (TMB) substrate for 5-10 min. The reaction was stopped by adding 1M H₃PO₄ and the absorbance was measured spectrometrically at 450 nm in a microtiter plate reader. FIG. 1A discloses “SSVA” as SEQ ID NO: 34, and “SASSLYS” as SEQ ID NO: 35, as well as SEQ ID NOS 36-49, 51, 44, 2-4, 4, 5-7, 5, 4, 5, 8-10, 4, 52, 55, 11-16, 15, 15, 13, 17-20, 13, 53, 56, 21-23, 22, 24-33, 54, 57, respectively, in order of columns.
(§2) The full length IgG1s and the antibody fragments (Fabs) were purified and a single-point ELISA was done to determine the specificity of the antibodies. […] A multipoint competitive ELISA was used to determine the relative affinities of the antibodies to the recombinant antigen.

[2] = molecular target: T2, recombinant mouse LRP6-His chimera (mouse, UniProt O88572 20-1370); assay: as above
T2 construct: extracellular domain; also called ECD of mouse LRP6; not shown: His tag
T2 sequence (looked up): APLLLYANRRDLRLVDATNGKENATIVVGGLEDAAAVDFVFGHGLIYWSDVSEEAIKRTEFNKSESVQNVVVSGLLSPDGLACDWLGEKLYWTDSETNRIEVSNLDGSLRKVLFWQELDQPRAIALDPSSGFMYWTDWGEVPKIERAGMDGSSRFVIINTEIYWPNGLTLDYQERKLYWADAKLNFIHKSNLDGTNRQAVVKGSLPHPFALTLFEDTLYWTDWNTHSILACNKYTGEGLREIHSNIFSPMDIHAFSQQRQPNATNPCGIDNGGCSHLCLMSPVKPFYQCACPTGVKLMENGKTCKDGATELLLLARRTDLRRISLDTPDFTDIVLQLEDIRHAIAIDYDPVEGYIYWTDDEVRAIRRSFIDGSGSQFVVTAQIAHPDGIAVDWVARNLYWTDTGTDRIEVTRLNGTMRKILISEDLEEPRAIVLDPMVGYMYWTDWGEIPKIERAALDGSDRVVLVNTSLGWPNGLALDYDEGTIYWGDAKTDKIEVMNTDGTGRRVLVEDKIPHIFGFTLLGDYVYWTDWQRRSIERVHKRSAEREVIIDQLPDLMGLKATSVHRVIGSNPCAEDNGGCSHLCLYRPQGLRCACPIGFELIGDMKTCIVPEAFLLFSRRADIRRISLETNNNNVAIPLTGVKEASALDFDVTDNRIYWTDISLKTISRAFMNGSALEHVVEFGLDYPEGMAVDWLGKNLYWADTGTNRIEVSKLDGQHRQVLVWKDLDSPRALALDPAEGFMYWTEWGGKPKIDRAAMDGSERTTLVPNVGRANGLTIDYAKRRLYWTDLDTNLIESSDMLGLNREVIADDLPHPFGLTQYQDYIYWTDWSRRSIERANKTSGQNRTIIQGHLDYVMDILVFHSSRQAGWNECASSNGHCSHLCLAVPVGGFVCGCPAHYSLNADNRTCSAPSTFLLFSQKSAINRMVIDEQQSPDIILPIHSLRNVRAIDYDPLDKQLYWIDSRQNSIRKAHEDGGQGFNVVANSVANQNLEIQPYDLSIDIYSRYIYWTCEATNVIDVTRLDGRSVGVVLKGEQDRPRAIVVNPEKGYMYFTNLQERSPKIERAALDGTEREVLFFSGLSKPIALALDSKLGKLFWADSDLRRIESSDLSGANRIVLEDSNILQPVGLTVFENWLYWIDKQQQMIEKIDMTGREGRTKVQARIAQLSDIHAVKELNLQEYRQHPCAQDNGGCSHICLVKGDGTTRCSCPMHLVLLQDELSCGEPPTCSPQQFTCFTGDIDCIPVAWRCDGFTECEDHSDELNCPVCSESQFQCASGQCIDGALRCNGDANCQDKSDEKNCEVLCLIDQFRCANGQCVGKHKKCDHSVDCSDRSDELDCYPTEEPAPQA
Description: as §1, §2

B1: LRP5-R3O_D3 (antibody, V domains shown)
VH: EVQLVESGGGLVQPGGSLRLSCAASGFNFSSSSIHWVRQAPGKGLEWVASISSSYGYTYYADSVKGRFTISADTSKNTAYLQMNSLRAEDTAVYYCARSWAMDYWGQGTLVTVSS
VL: DIQMTQSPSSLSASVGDRVTITCRASQSVSSAVAWYQQKPGKAPKLLIYSASSLYSGVPSRFSGSRSGTDFTLTISSLQPEDFATYYCQQYWAYYSPITFGQGTKVEIKR
notes: Fab-phage in the screen; also called LRP5-R30_D3; LRP5-R30D3
binding result [1]: binds | binding result [2]: binds
